Reference: patent publication US20160280792A1 (Kyowa Kirin, published 2016)

Columns and labels:
[1] = molecular target: T1, soluble form of human IL-3Rα protein (extracellular region with C-terminal FLAG tag) (human, UniProt P26951 19-305); assay: SPR (Biacore 2000): antibody captured on anti-human antibody CM5 chip, soluble IL-3Rα as analyte, 1:1 Langmuir fit
T1 construct: Made in CHOras1 cells, purified on anti-FLAG gel; also called soluble form of IL-3Rα protein; soluble form of human IL-3Rα extracellular region
T1 sequence: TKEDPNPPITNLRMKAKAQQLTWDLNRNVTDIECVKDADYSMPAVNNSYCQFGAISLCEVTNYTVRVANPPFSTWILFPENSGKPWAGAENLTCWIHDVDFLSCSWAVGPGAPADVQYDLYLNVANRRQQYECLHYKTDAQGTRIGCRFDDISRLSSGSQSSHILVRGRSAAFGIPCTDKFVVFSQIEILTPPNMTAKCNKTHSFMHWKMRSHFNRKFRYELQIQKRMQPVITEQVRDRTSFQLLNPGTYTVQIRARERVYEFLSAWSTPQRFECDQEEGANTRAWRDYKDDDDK
Method: Specifically, CM5 (research grade) was used for a sensor tip (each GE). Firstly, the CM5 tip was activated by applying an equivalent mixture of 400 mM EDC (N-ethyl-N′-(3-dimethylaminopropyl)carbodiimidehydrochloride) and 100 mM NHS (N-hydroxysuccinimide) to the CM5 tip. Next, an antibody to the human antibody attached to the Human Antibody Capture Kit (GE) (hereinafter, referred to as anti-human antibody antibody) was diluted with the solution attached to the kit and applied thereto, thereby immobilizing the required amount of the anti-human antibody antibody to the CM5 tip. Regarding the mouse antibody to be used as a control, an antibody to the mouse antibody attached to the Mouse Antibody Capture Kit (GE) (hereinafter, referred to as anti-mouse antibody antibody) was diluted with the solution attached to the kit and applied thereto, thereby immobilizing a necessary amount thereof to the CM5 tip. Next, the surface of the activated tip was blocked and inactivated by applying 1 M of ethanolamine dihydrochloride thereto. By the above steps until this, preparation of a CM5 sensor tip which can measure the dissociation constant KD was completed.
Next, each of anti-IL-3Rα antibodies, was diluted to give a concentration of 5 μg/ml with HBS-FP buffer (GE) one kind per one flow cell and applied, thereby allowing it to bind to the immobilized anti-human antibody antibody or anti-mouse antibody antibody. Next, the soluble form of IL-3Rα protein was applied thereto. In order to dissociate the bound anti-IL-3Rα antibody and soluble form of IL-3Rα protein, 3 M MgCl₂ attached to Human Antibody Capture Kit or pH 1.7 of Glycine-HCl attached to Mouse Antibody Capture Kit was applied in the amount attached to the kit. The steps until this were regarded as one step. By repeating the same steps using two or more concentrations of the soluble form of IL-3Rα protein, data for calculating association and dissociation constants (sensorgram) were obtained.
In the analysis, Biaevaluation software (GE) was used and Biaevaluation Software Handbook was referred. Specifically, by carrying out simultaneous analysis of kinetics analysis, employing basically the 1:1 Langmuir binding reaction model and fitting, association rate constant (Ka) and dissociation rate constant (Kd) were calculated, and the value of dissociation constant KD was calculated by the calculation of Kd/Ka.

[2] = molecular target: T2, IL-3Rα/GM-CSFRα chimeric protein, A domain of IL-3Rα replaced by that of GM-CSFRα, on HEK293T cells (human, UniProt P15509 23-114); assay: flow cytometry, labelled antibody at 1 µg/ml, HEK293T cells expressing the construct
T2 construct: domain: A domain; The KpnI site (GGTACC) at the junction encodes an extra Gly-Thr; also called A domain substitution
T2 sequence: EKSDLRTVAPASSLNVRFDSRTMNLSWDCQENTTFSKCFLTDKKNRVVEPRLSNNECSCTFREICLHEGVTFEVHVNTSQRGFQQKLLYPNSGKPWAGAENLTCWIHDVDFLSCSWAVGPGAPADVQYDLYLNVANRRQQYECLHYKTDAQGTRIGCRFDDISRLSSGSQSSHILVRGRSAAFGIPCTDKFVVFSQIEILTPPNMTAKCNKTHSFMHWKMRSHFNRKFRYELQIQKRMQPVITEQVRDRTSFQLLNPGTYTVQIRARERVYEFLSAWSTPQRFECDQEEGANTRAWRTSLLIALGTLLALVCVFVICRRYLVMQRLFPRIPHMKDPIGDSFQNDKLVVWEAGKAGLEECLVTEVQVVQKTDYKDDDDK
Method: (§1) HEK293T cell (ATCC CRL 1268) was used for the preparation of the IL-3Rα/GM-CSFRα chimeric protein expression cell. Using 293Fectin (Invitrogen), the plasmid DNA obtained in the above was introduced as an expression vector into the HEK293T. The HEK293T to which the expression vector was introduced was cultured using a shaker under conditions of 5% CO₂ and 37° C. after 2 days of the introduction, the […] was used for in the flow cytometry analysis.
(§2) From 100,000 to 1,000,000 cells of the chimeric protein expression cell were allowed to react for 30 minutes on ice with at a concentration of 1 μg/ml with an AlexaFlour488-labeled human antibody or a commercially available FITC-labeled anti-IL-3Rα mouse antibody (7G3 or 9F5: both from BD Biosciences, 6H6: Acris Antibodies, AC145: Milteny Biotech, 107D2.08: Dendritics). A staining medium (Dulbecco's PBS supplemented with 2% fetal bovine serum, 2 mM EDTA and 0.05% NaN₃) was used for the dilution of antibodies and cells. Next, the cells reacted with antibodies were washed three times with the staining medium and whether the labeled antibody bound to the cell was confirmed by flow cytometry.

[3] = molecular target: T3, IL-3Rα/GM-CSFRα chimeric protein, B domain of IL-3Rα replaced by that of GM-CSFRα, on HEK293T cells (human, UniProt P15509 115-213); assay: as above
T3 construct: domain: B domain; The KpnI sites (GGTACC) at both junctions each encode an extra Gly-Thr; also called B domain substitution
T3 sequence: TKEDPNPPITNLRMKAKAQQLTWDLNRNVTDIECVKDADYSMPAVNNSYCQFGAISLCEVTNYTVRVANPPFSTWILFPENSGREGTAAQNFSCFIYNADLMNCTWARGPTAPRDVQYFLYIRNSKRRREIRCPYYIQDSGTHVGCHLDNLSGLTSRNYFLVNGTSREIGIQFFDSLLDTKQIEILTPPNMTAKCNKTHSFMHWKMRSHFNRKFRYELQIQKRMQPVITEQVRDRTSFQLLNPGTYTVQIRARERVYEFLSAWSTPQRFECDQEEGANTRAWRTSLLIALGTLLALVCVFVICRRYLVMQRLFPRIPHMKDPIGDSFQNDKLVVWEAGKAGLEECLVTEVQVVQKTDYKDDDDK
Method: as §1, §2

B1: Old19 anti-human IL-3Rα human antibody (antibody, human IgG1, V domains shown)
VH: QVQLVQSGAEVKKPGSSVKVSCKASGGTFSSYAISWVRQAPGQGLEWVGGIIPIFGTANYAQKFQGRVTITADESTSTAYMELSSLRSEDTAVYYCARGHKYGPYYFDYWGQGTLVTVSS
VL: DIQMTQSPSSLSASVGDRVTITCRASQGISSWLAWYQQKPEKAPKSLIYAASSLQSGVPSRFSGSGSGTDFTLTISSLQPEDFATYYCQQYNSYPRTFGQGTKVEIK
notes: Human antibody; recombinant form in N5KG1-Val Lark vector (human IgG1, kappa)
[1]
  Kd: 3.24 nM
[2]
  binding result: no binding (tested: 1 µg/ml)
[3]
  binding result: no binding (tested: 1 µg/ml)
